Tested on: MS2 coat protein
Assay: apparent KD of MS2 coat protein; designed switch direction (-1 OFF switch, 1 ON switch): -1; higher = weaker reporter binding
Outline: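 On Illumina chips, designed RNA switches with common flanks were made by stalled E. coli RNA polymerase. Titrations with SNAP-549-labelled MS2 coat protein, doubling from 0.7 or 1.5 nM to 3 µM, were done with no input, with 200 uM small-molecule ligand, or with an oligonucleotide input. Apparent KD is the median per design over clusters, from curve fits of normalised cluster fluorescence.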

[1] = Eterna round: R95, input ligand: FMN 200 uM
[2] = Eterna round: R95, input ligand: microRNA oligo, concentration not stated
[3] = Eterna round: R95, input ligand: none
[4] = input ligand: microRNA oligo, concentration not stated

Sequence: CGUCCUGUAGUGAGGAUAUUGUCUCGGAUACGAAACAAGAAGGCACAUGAGGAUCACCCAUGUAAUCAGGACGA [Malc #30 mod 12] (puzzle: Brourd's mod of Exclusion 4)
- apparent KD of MS2 coat protein [1]: 14.1 nM
- apparent KD of MS2 coat protein [2]: 16.1 nM
- apparent KD of MS2 coat protein [3]: 13.3 nM

Sequence: CGUCUGUAAGGAUAUGGUUGCAUCAACAUGAGGAUCACCCAUGUAACUUGGGACUAGUGAUUAGAAGGUACGAACG [EX5 #59] (Eterna round: R97, puzzle: Exclusion 5)
- apparent KD of MS2 coat protein (input ligand: FMN 200 uM): 218 nM
- apparent KD of MS2 coat protein (input ligand: none): 255 nM

Sequence: CGUCUGUCGGAAGGAUAUGUAGGGUGUCUUUUCCUCAGUACGAAGUACAUGAGGAUCACCCAUGUACAGAAGGUCCACAAUUAA [Essosoedso] (Eterna round: R96, puzzle: Exclusion NG 2)
- apparent KD of MS2 coat protein (input ligand: FMN 200 uM): 109 nM
- apparent KD of MS2 coat protein [4]: 67.9 nM
- apparent KD of MS2 coat protein (input ligand: none): 75.3 nM

Sequence: CGUGACUCAGGAUAUGUAUUAUAUCACAUGAGGAUCACCCAUGUCCAGCGAAAGCUGGAGGCAGAAGGGAGUCACG [Fiskers Ex 5 - 47] (puzzle: Exclusion 5)
- apparent KD of MS2 coat protein [1]: 41.4 nM
- apparent KD of MS2 coat protein [2]: 87.6 nM
- apparent KD of MS2 coat protein [3]: 106 nM

Sequence: CUAAAUCAUGUAGGAUAUGCGUAGCGAAGCUAUGCAGAAGGACAUGAGGAUCACCCAUGUUCUUCCGUCUGCGUACAGACGGAA [Mat - Exclusion NG 1 - Mod of JL - D29] (Eterna round: R96, puzzle: Exclusion NG 1)
- apparent KD of MS2 coat protein (input ligand: FMN 200 uM): 337 nM
- apparent KD of MS2 coat protein [4]: 29.1 nM
- apparent KD of MS2 coat protein (input ligand: none): 38.2 nM

Sequence: CUAAAUCAUGUAGGAUAUGCGUGGCAAAGCUAUGCAGAAGGACAUGAGGAUCACCCAUGUCAUUCCGUCUGCGAACAGACGGGA [Mat - Exclusion NG 1 - Mod of JL - D50] (Eterna round: R96, puzzle: Exclusion NG 1)
- apparent KD of MS2 coat protein (input ligand: FMN 200 uM): 161 nM
- apparent KD of MS2 coat protein [4]: 15.4 nM
- apparent KD of MS2 coat protein (input ligand: none): 20.3 nM

Sequence: CUAAAUCAUGUAGGAUAUGCGUGGCGAAGCUAUGCAGAAGGACAUGAGGAUCACCCAUGUCUUUCCGUCUGCGUACAGACGGGA [JL ENG1 1.20] (Eterna round: R96, puzzle: Exclusion NG 1)
- apparent KD of MS2 coat protein (input ligand: FMN 200 uM): 151 nM
- apparent KD of MS2 coat protein [4]: 14.5 nM
- apparent KD of MS2 coat protein (input ligand: none): 21.2 nM

Sequence: CUAAAUCAUGUAGGAUAUGCGUGGCGAAGCUAUGCAGAAGGACAUGAGGAUCACCCAUGUUCUUCCGUCUGCGUACAGACGGAA [JL ENG1 1.18] (Eterna round: R96, puzzle: Exclusion NG 1)
- apparent KD of MS2 coat protein (input ligand: FMN 200 uM): 316 nM
- apparent KD of MS2 coat protein [4]: 28.7 nM
- apparent KD of MS2 coat protein (input ligand: none): 38 nM

Sequence: CUAAUUAGAGGAUAUACAUGAGGAUCACCCAUGUUCUUCAAGUCGCCAACGGCAUAACGUAGAAGGCUGAGUGG [Eternabot (L1) Solution 32] (Eterna round: R97, puzzle: Exclusion 3)
- apparent KD of MS2 coat protein (input ligand: FMN 200 uM): 26.4 nM
- apparent KD of MS2 coat protein (input ligand: none): 25.8 nM

Sequence: CUACUAGAGACGCGUGGGAACAUGAGGAUCACCCAUGUCAAUGGAGUUUAAACAGGCCCGUCGUUUUGCUCGUCGUG [Eternabot (L2) Solution 41] (Eterna round: R97, puzzle: Sensor, turn-off variant 1)
- apparent KD of MS2 coat protein (input ligand: FMN 200 uM): 113 nM
- apparent KD of MS2 coat protein (input ligand: none): 132 nM

Sequence: CUACUGAAGCUUUGCUUUAGUCGUACAUGAGGAUCACCCAUGUAGGAUAUGGUAGGCUUUGCUUACUAGAAGGAUAGAGUGAUC [salish99_ExNG3_r04_601] (Eterna round: R96, puzzle: Exclusion NG 3)
- apparent KD of MS2 coat protein (input ligand: FMN 200 uM): 80.9 nM
- apparent KD of MS2 coat protein [4]: 38.3 nM
- apparent KD of MS2 coat protein (input ligand: none): 58.1 nM

Sequence: CUAGAUCUUCGGAUCUAGUACAUGAGGAUCACCCAUGUUACGAGUUGAUCCUCAUACAAGCUUUUUGCUCGUCUUAU [Sensor v3 - Turn-off variant 1 - 25] (puzzle: Sensor v3, turn-off variant 1)
- apparent KD of MS2 coat protein [1]: 16.5 nM
- apparent KD of MS2 coat protein [2]: 9.03 nM
- apparent KD of MS2 coat protein [3]: 13.9 nM

Sequence: CUAGCGAAUGUAGGAUAUCGGACUGUUUCAGUCUGAGAAGGACAUGAGGAUCACCCAUGUAUAGCUACGUGAGUAGCACGCUAG [JL ENG1 3.90] (Eterna round: R96, puzzle: Exclusion NG 1)
- apparent KD of MS2 coat protein (input ligand: FMN 200 uM): 27.6 nM
- apparent KD of MS2 coat protein [4]: 16.1 nM
- apparent KD of MS2 coat protein (input ligand: none): 21.7 nM

Sequence: CUAGGGCGCAUUUAAACGCCCUAACAUGAGGAUCACCCAUGUCAGGAUAUGUAGGCAAAGACCCUACAGAAGGGACAUGUCCUA [Lainceso] (Eterna round: R96, puzzle: Exclusion NG 3)
- apparent KD of MS2 coat protein (input ligand: FMN 200 uM): 264 nM
- apparent KD of MS2 coat protein [4]: 57.1 nM
- apparent KD of MS2 coat protein (input ligand: none): 72.7 nM

Sequence: CUAUUCCGAGGAUAUACAUGAGGAUCACCCAUGUCGGGCCUCUGCGUUUAGCGCGUAAGUAGAAGGUGGGUUUC [JL Riri mod 8] (puzzle: Exclusion 3)
- apparent KD of MS2 coat protein [2]: 27.1 nM

Sequence: CUAUUUUUCGCAGGAUAUGCAUCUCCUUUAUUAGCAGAAGGGCGUUAAACAUGAGGAUCACCCAUGUAUUGUGGUGCUUUUUUC [JR_ExcNG1_Sub059] (Eterna round: R96, puzzle: Exclusion NG 1)
- apparent KD of MS2 coat protein (input ligand: FMN 200 uM): 214 nM
- apparent KD of MS2 coat protein [4]: 54.3 nM
- apparent KD of MS2 coat protein (input ligand: none): 57.9 nM

Sequence: CUCAGACAUGAGGAUCACCCAUGUCAGGAUAUCGUCUACCUGUGGAAACACAGGUAGACGAGAAGGGAUGUGUU [SS1 Omei 3 v1] (puzzle: Exclusion 1)
- apparent KD of MS2 coat protein [2]: 43.5 nM

Sequence: CUCAUGCCUGAGGAUAUGCUGUACAAAAGUACUGCAGAAGGCAGAACAUGAGGAUCACCCAUGUGGCGAAAGCC [Omei Ex G1] (Eterna round: R97, puzzle: Exclusion 6)
- apparent KD of MS2 coat protein (input ligand: FMN 200 uM): 549 nM
- apparent KD of MS2 coat protein (input ligand: none): 106 nM

Sequence: CUCAUGUGAGGAUAUCACCCAAGAGUGAGCAAUCACUAUCAUGAGAAGGCACAUGAGGAUCACCCAUGUUAAAA [Xesoer] (Eterna round: R97, puzzle: Exclusion 4)
- apparent KD of MS2 coat protein (input ligand: FMN 200 uM): 11.5 nM
- apparent KD of MS2 coat protein (input ligand: none): 57.7 nM

Sequence: CUCAUGUGAGGAUAUCAGUAGUAAAAAAAUAAAAUUACUACUGAGAAGGCACAUGAGGAUCACCCAUGUGCCAA [EX4 337: Super Stable 37] (Eterna round: R96, puzzle: Exclusion 4)
- apparent KD of MS2 coat protein [4]: 12.8 nM

Sequence: CUCAUGUGAGGAUAUGAGUUAGGGCGAGAGCCCUAUGAAAAUUAGAAGGCACAUGAGGAUCACCCAUGUGAGAA [Rerige] (Eterna round: R97, puzzle: Exclusion 4)
- apparent KD of MS2 coat protein (input ligand: FMN 200 uM): 211 nM
- apparent KD of MS2 coat protein (input ligand: none): 169 nM

Sequence: CUCAUGUGAGGAUAUGUGAUCUGCCUUCUAUGUAGAUGAUCACAGAAGGCACAUGAGGAUCACCCAUGUAGAUC [Ex4 - 3 - 27] (puzzle: Exclusion 4)
- apparent KD of MS2 coat protein [2]: 69.2 nM

Sequence: CUCCAGCAAGGAUAUACAUAGUGACGUCUGUUUAAUCUUAAACAUGAGGAUCACCCAUGUAGAAGGUGCGUCAC [Biqugeza] (Eterna round: R97, puzzle: Exclusion 2)
- apparent KD of MS2 coat protein (input ligand: FMN 200 uM): 19.4 nM
- apparent KD of MS2 coat protein (input ligand: none): 17.1 nM

Sequence: CUCCAGCAAGGAUAUACGUGUCUAAGAAGAGGUCUUAUGCUACAUGAGGAUCACCCAUGUAGAAGGUGCGGACA [EX2 C.2] (Eterna round: R97, puzzle: Exclusion 2)
- apparent KD of MS2 coat protein (input ligand: FMN 200 uM): 14.4 nM
- apparent KD of MS2 coat protein (input ligand: none): 15.4 nM

Sequence: CUCCCUCGGGUUAGGAUAUGCUACUGGCUUCAGAUGCAGAAGGAACAUGAGGAUCACCCAUGUACCAAAUAAAA [BmEX4 B.15] (Eterna round: R97, puzzle: Brourd's mod of Exclusion 4)
- apparent KD of MS2 coat protein (input ligand: FMN 200 uM): 35 nM
- apparent KD of MS2 coat protein (input ligand: none): 14.5 nM

Sequence: CUCCUCAUGGCGCCUAAACACAUGAGGAUCACCCAUGUACAGGCCUUUUGCCGUCUUAUAAUAAAACCGAGGAUGCG [Lainxezabe] (puzzle: Sensor v3, turn-off variant 1)
- apparent KD of MS2 coat protein [1]: 29.6 nM
- apparent KD of MS2 coat protein [2]: 223 nM
- apparent KD of MS2 coat protein [3]: 26.8 nM

Sequence: CUCCUGUGAGGAUAUGUAGGCCGCCCGGUCAGCCGAGCGAGACAGAAGGCACAUGAGGAUCACCCAUGUGACUC [EX4 B.13] (Eterna round: R97, puzzle: Exclusion 4)
- apparent KD of MS2 coat protein (input ligand: FMN 200 uM): 42.2 nM
- apparent KD of MS2 coat protein (input ligand: none): 16.6 nM

Sequence: CUCGUGUAAGGAUAUGUACCGACACCGCUAAAGCGGCUCCGACAGAAGGUACAUGAGGAUCACCCAUGUACUGC [EX4 B.2] (Eterna round: R97, puzzle: Exclusion 4)
- apparent KD of MS2 coat protein (input ligand: FMN 200 uM): 25.9 nM
- apparent KD of MS2 coat protein (input ligand: none): 20.3 nM

Sequence: CUCUUGGCAGGAUAUGCUUUUUUAGACAUGAGGAUCACCCAUGUGAUGAAUAUUGGGUUCGCAGAAGGGCCUGAAU [JR_E5_Sub040] (puzzle: Exclusion 5)
- apparent KD of MS2 coat protein [2]: 48.4 nM

Sequence: CUCUUGUUAGGAUAUCAAACUGGCGGCGGAGCCGGCAGUAGUGAGAAGGGACAUGAGGAUCACCCAUGUAAGAA [Veeder] (puzzle: Exclusion 4)
- apparent KD of MS2 coat protein [2]: 55.1 nM

Sequence: CUGAACCCGGUAGGAUAUAUUGUGGGCAGGCGUGGAACGACAUGAGGAUCACCCAUGUAAUUUAGGUAGAAGGGCCGAGAGAUU [Excl-NG2-LRO13] (Eterna round: R96, puzzle: Exclusion NG 2)
- apparent KD of MS2 coat protein (input ligand: FMN 200 uM): 22.9 nM
- apparent KD of MS2 coat protein [4]: 21.7 nM
- apparent KD of MS2 coat protein (input ligand: none): 37.3 nM

Sequence: CUGACGGCAGGAUAUACAUGAGGAUCACCCAUGUAAAUUUUUCGUUUAACUUGAAUGUGUAGAAGGGCCCAACC [Ex3 #79] (Eterna round: R97, puzzle: Exclusion 3)
- apparent KD of MS2 coat protein (input ligand: FMN 200 uM): 19.6 nM
- apparent KD of MS2 coat protein (input ligand: none): 21.5 nM

Sequence: CUGAGCAGACGGAGAUCCAACAUGAGGAUCACCCAUGUCUCAAAAGCUUUUUGCUCAUCUUAUCCUCCUCUGUUCUC [Edcesobi] (puzzle: Sensor v3, turn-off variant 1)
- apparent KD of MS2 coat protein [1]: 20.5 nM
- apparent KD of MS2 coat protein [2]: 336 nM
- apparent KD of MS2 coat protein [3]: 17.9 nM

Sequence: CUGAGCAGACGGAGAUCCAACAUGAGGAUCACCCAUGUCUCAAAAGCUUUUUGCUUGUCUUAUUCUCCUCUGUUCAC [Enradibe] (puzzle: Sensor v3, turn-off variant 1)
- apparent KD of MS2 coat protein [1]: 13.2 nM
- apparent KD of MS2 coat protein [2]: 31.6 nM
- apparent KD of MS2 coat protein [3]: 11.2 nM

Sequence: CUGAGCUGAGGAUAUACAUGAGGAUCACCCAUGUGUUCCAGCUUGCGUACAGGCAGAUGUAGAAGGCAGUUCGG [JL-ex3-3.35 Brourd mod] (puzzle: Exclusion 3)
- apparent KD of MS2 coat protein [2]: 38.9 nM

Source: the supplement of paper PMC9170038
